Source: patent publication US9518084B2, “Epitope tag for affinity-based applications” (VIB VZW, priority 2010, dated 2016)

B1: biNbSyn2: bivalent version of NbSyn2 (SEQ ID NO:68) with a GGGGSGGGS linker between both NbSyn2 sequences (protein)
chain: QVQLVESGGGSVQAGGSLRLSCAASGIDSSSYCMGWFRQRPGKEREGVARINGLGGVKTAYADSVKDRFTISRDNAENTVYLQMNSLKPEDTAIYYCAAKFSPGYCGGSWSNFGYWGQGTQVTVSSGGGGSGGGSQVQLQESGGGSVQAGGSLRLSCAASGIDSSSYCMGWFRQRPGKEREGVARINGLGGVKTAYADSVKDRFTISRDNAENTVYLQMNSLKPEDTAIYYCAAKFSPGYCGGSWSNFGYWGQGTQVTVSSHHHHHH
modifications: Nanobody biNbSyn2
B2: NbSyn1a: Nanobody that specifically binds to α-synuclein, 126 amino acids, SEQ ID NO:24 (protein)
VHH: EVQLVESGGGSVQAGGSLSLACAPSGLNASSYCMGWFRQSPGKEREGVARINGNAGIKTAYADSVKDRFTLSRDNAKNTVYLQMNSLKAEDSAIYFCAAKSSPGYCGGNWDNFGYWGQGTQVTVSS
modifications: Nb_Syn1a

What was measured:
[1] = test system: Nb458-gaaEPEA (SEQ ID NO:8); experiment: Solid phase ELISA, bivalent versus monovalent NbSyn2 alkaline phosphatase conjugate; assay type: binding; conditions: alkaline phosphatase conjugates, dilutions 1/250 to 1/4000, OD405
[2] = test system: EPEA (SEQ ID NO:1)-tagged Rev protein; experiment: In vivo detection of EPEA-tagged Rev in transfected HeLa cells by confocal microscopy; assay type: cell-based, HIV; conditions: nanobody fused to mKO1 or GFP, GYQDYEPEA and EPEA tags
From the text: In another set of experiments, we explored the use of the EPEA (SEQ ID NO:1) tag to detect/visualize the expression of recombinant proteins within a (living) eukaryotic cell. […] Cells that are double-transfected with Rev-[sequence] (SEQ ID NO:10) or Rev-[sequence]
The two different tags [sequence] (SEQ ID NO:2) and EPEA (SEQ ID NO:1) were C-terminal fused to Rev by PCR using Takara Ex Taq polymerase (TAKARA BIO INC).
HeLa, human epithelial cells were maintained using standard procedures until confluent in DMEM medium with 10% fetal calf serum. For transfection of plasmid DNA in HeLa, cells were harvested by a Trypsin/EDTA treatment, counted and plated onto glass bottom microwell dishes (MatTek corporation). Transfections were preformed according to manufacturer's manual: the 4×10^5 cells were seeded in a 35 mm dish. […]
Transfected HeLa cells were imaged with a laser scanning SP5 confocal microscope (Leica Microsystems) equipped with an AF 6000 microscope and an AOBS, using a HCX PL APO×63 (NA 1.2) water immersion objective magnification. GFP was monitored with the Ar laser using the 488-nm line for excitation, and emission was detected between 492 and 570 nm. mKusabira orange fluorescent protein (mKO) was imaged using the DPSS-561 nm laser for excitation, and emission was detected between 570 and 675 nm.

Sequence of Nb458-gaaEPEA (SEQ ID NO:8) (as listed by the source): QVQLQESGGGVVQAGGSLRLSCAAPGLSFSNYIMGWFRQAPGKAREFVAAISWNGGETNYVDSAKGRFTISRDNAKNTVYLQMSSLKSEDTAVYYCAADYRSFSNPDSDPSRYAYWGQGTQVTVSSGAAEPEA

Row | Molecule | Sensitivity of ELISA detection compared with monovalent NbSyn2-AP conjugate [1] | Recognition of tagged Rev in double-transfected cells (colocalization in the nucleus) [2]
1 | B1 | sensitivity of detection increases | 
2 | B2 |  | recognized in vivo
